# PMC13267735, “Structural basis of liver de-targeting and neuronal tropism of CNS-targeted AAV capsids” (Molecular therapy : the journal of the American Society of …, 2026)
# B1: PKD2 domain of AAVR (AA 401-498) fused to maltose binding protein and 6xHis (domain or fragment)
# chain: EPRKNRPPIAIVSPQFQEISLPTTSTVIDGSQSTDDDKIVQYHWEELKGPLREEKISEDTAILKLSKLVPGNYTFSLTVVDSDGATNSTTANLTVNKA
# notes: AAV receptor (AAVR), polycystic kidney disease domain 2 (PKD2), AA 401-498; Construct for biolayer interferometry; monomer fraction from SEC was used; also called AAVR-PKD2; MBP-tagged AAVR-PKD2; source: E. coli BL21 (DE3)-RIPL, purified (amylose resin, Superdex 200 SEC)
# B2: LY6A (AA 1-109) derived from C57BL/6 mice with Fc (human IgG1), Myc and 6xHis tags (Fc fusion, mouse (C57BL/6), UniProt P05533 27-109, looked up)
# chain: LECYQCYGVPFETSCPSITCPYPDGVCVTQEAAVIVDSQTRKVKNNLCLPICPPNIESMEILGTKVNVKTSCCQEDLCNVAVP
# notes: signal peptide in the construct; LY6A, C57BL/6 mouse, AA 1-109; also called His-Fc-LY6A; source: HEK293T, transiently transfected, secreted into conditioned media, purified (Ni-NTA)
# How the values were obtained:
# Settings in all cases: both partners purified
# AAV9 (wild-type) capsid = biological target: T1, AAV9 (wild-type) capsid (adeno-associated virus serotype 9 (AAV9), UniProt Q6JC40 1-736); assay: BLI; BLItz; biotin-conjugated CaptureSelect AAV9 nanobody on streptavidin biosensor, AAV (5x10^12 vg/ml) loaded as biolayer, MBP-tagged PKD2 as analyte at 1.25-80 uM, 120 s association and 120 s dissociation; DPBS, 1% BSA, 0.02% Tween-20; Kd averaged from 3 experiments
# T1 construct: AAV9 capsid protein VP1; VR-IV 452-458 NGSGQNQ, VR-VIII 587-590 AQAQ; Whole virus capsid packaging an eGFP genome; also called wild-type AAV9; source: HEK293T, triple-transfected (pHelper, capsid and genome plasmids), purified (iodixanol gradient)
# AAV-PHP.eB capsid [1] = biological target: T2, AAV-PHP.eB capsid (adeno-associated virus serotype 9 (AAV9), UniProt Q6JC40 1-736, 587-588 AQ to DGTLAVPFK); assay: as above
# T2 construct: AAV9 capsid protein VP1 with the PHP.eB VR-VIII 7-mer insertion TLAVPFK between residues 588 and 589 and two flanking point mutations (587-588 AQ to DG); capsid holds VP1, VP2 and VP3; Whole virus capsid packaging an eGFP genome; VP1/VP2/VP3 assembly; source: HEK293T, triple-transfected (pHelper, capsid and genome plasmids), purified (iodixanol gradient)
# AAV.CAP-B10 capsid [2] = biological target: T3, AAV.CAP-B10 capsid (adeno-associated virus serotype 9 (AAV9), UniProt Q6JC40 1-736, 452NGSGQNQ458 to 452DGAATKN458 | 587-588 AQ to DGTLAVPFK); assay: as above
# T3 construct: capsid holds VP1, VP2 and VP3; Whole virus capsid packaging an eGFP genome; VP1/VP2/VP3 assembly; source: HEK293T, triple-transfected (pHelper, capsid and genome plasmids), purified (iodixanol gradient)
# eB.24 capsid [3] = biological target: T4, eB.24 capsid (adeno-associated virus serotype 9 (AAV9), UniProt Q6JC40 1-736, S454A | Q456T | 587-588 AQ to DGTLAVPFK); assay: as above
# T4 construct: capsid holds VP1, VP2 and VP3; Whole virus capsid packaging an eGFP genome; VP1/VP2/VP3 assembly; also called PHP.eB.24; source: HEK293T, triple-transfected (pHelper, capsid and genome plasmids), purified (iodixanol gradient)
# AAV9-B10 capsid = biological target: T5, AAV9-B10 capsid (adeno-associated virus serotype 9 (AAV9), UniProt Q6JC40 1-736, 452NGSGQNQ458 to 452DGAATKN458); assay: as above
# T5 construct: AAV9 capsid protein VP1 with the CAP-B10 7-mer in VR-IV (452-458 DGAATKN) and unaltered AAV9 VR-VIII; capsid holds VP1, VP2 and VP3; Whole virus capsid packaging an eGFP genome; VP1/VP2/VP3 assembly; source: HEK293T, triple-transfected (pHelper, capsid and genome plasmids), purified (iodixanol gradient)
# AAV9-X1 capsid = biological target: T6, AAV9-X1 capsid (adeno-associated virus serotype 9 (AAV9), UniProt Q6JC40 1-736, GNNTRSV inserted between 588 and 589); assay: as above
# T6 construct: capsid holds VP1, VP2 and VP3; Whole virus capsid packaging an eGFP genome; VP1/VP2/VP3 assembly; source: HEK293T, triple-transfected (pHelper, capsid and genome plasmids), purified (iodixanol gradient)
# AAV9-X1.1 capsid = biological target: T7, AAV9-X1.1 capsid (adeno-associated virus serotype 9 (AAV9), UniProt Q6JC40 1-736, 452NGSGQNQ458 to 452DGAATKN458 | GNNTRSV inserted between 588 and 589); assay: as above
# T7 construct: AAV9 capsid protein VP1 with the AAV9-X1 VR-VIII 7-mer insertion GNNTRSV between residues 588 and 589 and the CAP-B10 7-mer in VR-IV (452-458 DGAATKN); capsid holds VP1, VP2 and VP3; Whole virus capsid packaging an eGFP genome (SCP1 promoter); VP1/VP2/VP3 assembly; source: HEK293T, triple-transfected (pHelper, capsid and genome plasmids), purified (iodixanol gradient)
# AAV-PHP.eB capsid [4] = biological target: T2, AAV-PHP.eB capsid; assay: pull-down; 6xHis-tagged bait (AAVR-PKD2 100-200 pmol or His-Fc-LY6A 30-60 pmol) on Ni-NTA resin, prey AAVs (0.05 pmol); DPBS with 20 mM imidazole, 1 hr at 4 C; eluted with 150 mM imidazole; western blot with anti-VP1/VP2/VP3 and anti-6xHis
# AAV.CAP-B10 capsid [5] = biological target: T3, AAV.CAP-B10 capsid; assay: as above
# eB.24 capsid [6] = biological target: T4, eB.24 capsid; assay: as above
Binder,Kd (AAV9 (wild-type) capsid),Kd (AAV-PHP.eB capsid [1]),Kd (AAV.CAP-B10 capsid [2]),Kd (eB.24 capsid [3]),Kd (AAV9-B10 capsid),Kd (AAV9-X1 capsid),Kd (AAV9-X1.1 capsid),binding result (AAV-PHP.eB capsid [4]),binding result (AAV.CAP-B10 capsid [5]),binding result (eB.24 capsid [6])
B1,11 µM,14 µM,61 µM,24 µM,47 µM,6 µM,19 µM,–,–,–
B2,–,–,–,–,–,–,–,binds,binds,binds
